Laboratory results from the supplement of paper PMC10266784.

B1: library; numbered along this chain (parent)
chain: MAAAAAAAAEQQSSNGPVKKSMREKAVERRSVNKEHNSNFKAGYIPIDEDRLHKTGLRGRKGNLAICVIILLFILAVINLIITLVIWAVIRIGPNGCDSMEFHESGLLRFKQVSDMGVIHPLYKSTVGGRRNENLVITGNNQPIVFQQGTTKLSVENNKTSITSDIGMQFFDPRTQNILFSTDYETHEFHLPSGVKSLNVQKASTERITSNATSDLNIKVDGRAIVRGNEGVFIMGKTIEFHMGGNMELKAENSIILNGSVMVSTTRLPSSSSGDQLGSGDWVRYKLCMCADGTLFKVQVTSQNMGCQISDNPCGNTH

Variants of: B1
Assay: SGCB cell-surface expression functional score (HA stain, bin4 vs bin1, normalised to synonymous) (log10 ratio); higher = more cell-surface SGCB (functional)
Outline: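 HEK293 cells stably expressing alpha-, gamma- and delta-sarcoglycan received codon-saturation libraries of HA-tagged, YFP-fused human beta-sarcoglycan by lentiviral transduction at MOI <0.1, performed in duplicate. Cells positive for YFP were sorted after 72 hours and cultured for 5–7 days, then stained on ice with Alexa Fluor 647 anti-HA and fixed. Fixed cells were sorted into four 5% intensity bins and amplicon-sequenced, and the log ratio of highest-bin to lowest-bin variant frequency, as a median over codons and transductions, gives the functional score. Per section, synonymous variants were scaled to mean 0, SD 0.5.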

SGCB cell-surface expression functional score (log10): each site, then its substitutions
N199: Q 0.86; Y -0.67; R -0.3; P -1.11; L -0.05; E -0.68; S 0.26; F 0.74; A -0.02; V 0.22; H 0.18; W 1.05; I -0.28; M -0.42; G -0.38; D 0.38; T 0.07; C -0.28; K 0.02
S197: Q 0.43; I -0.04; W 0.4; A -0.6; R -0.6; G -0.19; D -0.76; P -2.03; V 1.76; M -1.08; F -2.04; T -0.2; E -0.43; K -0.3; Y -1.16; N -0.61; H -0.72; C 0.14; L 0.24
K196: S -0.1; I -0.46; L -0.57; T -0.64; F -0.74; C -0.14; Y -1.19; P -0.01; A 0.53; V -0.07; R 0.33; H 1.37; N -0.02; W -0.69; Q 0.02; E -0.37; G -0.43; D -2.29; M 0.21
R207: F -1.57; M 0.13; C -0.91; H -0.5; E -2.46; Q -0.74; I -1.03; L -0.39; D -1.43; K -0.81; G -1.44; S -1.22; P -1.15; A -1.05; W -0.06; N -0.12; Y -0.73; V -0.64; T -0.69
T205: G -1.7; S -0.16; A -0.17; Q -2.06; I -0.16; L -0.11; M -0.07; Y -1.37; P -0.48; V -0.05; F -0.9; R -1.93; D -1.46; H -0.99; N -1.69; E -0.93; K -2.61; W -2.65; C -0.21
V200: T -2.11; L -0.58; G -1.65; D -1.23; Y -1.16; I 0.17; S -1.59; P -1.16; C -1.14; R -1.87; F -1.83; E -2.93; N -3.23; Q -0.73; W -1.75; A -0.04; K -2.94; M -0.63; H -2.51
G194: D 0.64; K 0.01; Q 0.38; C -0.15; H 0.27; S 0.34; R -0.07; T -0.71; P -0.58; N 0.05; Y -1.13; A -0.67; M -1.78; F -0.14; E -0.09; L -1.02; W 0.23; V -1.31; I -1.66
L191: P -1.47; H -1.37; Y -1.61; C -0.5; V -0.49; Q -1.1; T -1.31; R -1.37; I -0.16; F -0.08; E -1.09; D -1.17; N -2.28; M 0.28; W -0.06; K -0.32; S -1.19; A -1.71; G -1.07
I208: A -1.44; C -1.23
Q201: W -0.32; C 0.43; P -0.23; I 0.46; A 0.62; V 0.47; T -0.09; G 0.18; Y -0.31; D -0.56; N -0.7; M 1.02; R 0.39; S -0.35; H 0.31; L -0.33; F 0.62; E 0.21; K 0.07
F189: W -1.38; T -1.23; V -1.22; S -1.1; R -2.1; Y -0.98
V195: G -1.83; D -2.29; I 0.09; T -0.23; Q -1.76; E -0.23; S -0.44; Y -2.58; P -1.1; R -1.37; C 0.64; W 0.45; A 0.11; N -1.73; F -1.74; M -0.5; H -1.52; K -1.88; L -0.39
L198: C -0.88; V -0.55; Y -1.67; M -0.81; T -2.13; Q -1.42; K -1.58; E -2.32; P -1.18; I -0.47; G -1.98; F 0.25; R -2.21; D -2.43; N -1.95; W -0.6; S -1.39; H -0.37; A -1.81
H190: P 0.42; T 0.55; E -0.09; I -0.36; G 0.07; M -0.84; W -0.79; Q 0.16; R 0.34; F 0.15; V -0.28; Y 0.55; C -0.62; A -0.38; S 0.28; L -0.13; K 0.07; D -0.59; N 0.89
S204: F -0.03; Y -0.38; A -0.04; C -0.16; P -0.83; T -0.17
A203: F -0.62; M 0.612; P -0.92; D -1.81; R -1.46; I -0.24; G -1.02; L 0; E -0.01; H -1.81; S -1.01; C 0.38; K -1.01; Q -0.5; Y -2.13; W -0.3; V -0.13; T -0.59
S193: H 1.59; F 0.83; G 0.24; N 0.79; L 0.22; I 0.78; Y -0.19; T -0.16; K 0.33; W -1.15; C 0.3; V 0.52; R 0.17; E 1.32; M -0.52; A 0.18; P -0.22
K202: T 0.12; P -0.97; W -0.14; I -0.27; Q 0.17; A -0.2; D -1.97; E -0.96; Y -0.69; R 0.09; L 0.04; V -0.17; N -0.53; F -1.04; S 0.02; C -0.1; G -0.02; M 0.2; H -1.29
P192: H -1.15; S -0.21; K -1.31; G -0.57; M -1.22; R -1.04; A -1.12; Y -1.09; W -1.19; T -1.46; F -0.5; I -2.12; V -1.19; D -1.49; E -1.13; N -1.53; L -1.17; C -0.78; Q -2.22
E206: L -0.27; Y -0.12; Q -0.93; M 1.59; G -0.37; P -0.42; S 0.16; F 0.19; D 0.33; V 0.45; H 0.42; N 0.66; K -0.41; A 1.04; I -0.47; T 0.4; C -0.71; R -0.66; W 0.91
